Columns and labels:
Experiment in all cases: cell_activity
[1] = system: Passport (PP, PPTN) transposase PTs1; conditions: colony formation in PEGE cells
[2] = system: Sleeping Beauty transposase SB11 (synthetic (reconstructed fish Tc1-like)?); conditions: colony formation in PEGE cells
Tol2 transposase = conditions: colony formation in PEGE cells
piggyBac transposase = conditions: colony formation in PEGE cells; TTAA target
[3] = system: rtTR-KRAB2S-M2 (Escherichia coli / Homo sapiens fusion?); conditions: tet-off version, shCFTR1 expression with vs without doxycycline in pig fibroblasts
[4] = system: tTR-KRAB (Escherichia coli / Homo sapiens fusion?); conditions: tet-on version, shCFTR1 expression with vs without doxycycline in pig fibroblasts

Substance: PP transposon inverted repeats (pPTnP-PTK)
- activity (fold over no transposase) [1]: 5

Substance: SB transposon inverted terminal repeats (pT2-FloxP-PTK, pKT2P-PTK)
- activity (fold over no transposase) [2]: 13.5

Substance: mini Tol2 transposon inverted repeats (pGTol2P-PTK)
- activity (fold over no transposase) (Tol2 transposase): 21

Substance: piggyBac LTR1/LTR2 (pPBTP-PTK)
- activity (fold over no transposase) (piggyBac transposase): 28

Substance: tet operator (TRE)
- activity [3]: 67 fold change
- activity [4]: 64 fold change

From patent US8309791
